Broadly, the Kd is a measure of binding affinity in units of concentration.

Data set [1] concerns the target T1, GST-Elp1 CTD (Saccharomyces cerevisiae) (UniProt Q06706).
T1 sequence: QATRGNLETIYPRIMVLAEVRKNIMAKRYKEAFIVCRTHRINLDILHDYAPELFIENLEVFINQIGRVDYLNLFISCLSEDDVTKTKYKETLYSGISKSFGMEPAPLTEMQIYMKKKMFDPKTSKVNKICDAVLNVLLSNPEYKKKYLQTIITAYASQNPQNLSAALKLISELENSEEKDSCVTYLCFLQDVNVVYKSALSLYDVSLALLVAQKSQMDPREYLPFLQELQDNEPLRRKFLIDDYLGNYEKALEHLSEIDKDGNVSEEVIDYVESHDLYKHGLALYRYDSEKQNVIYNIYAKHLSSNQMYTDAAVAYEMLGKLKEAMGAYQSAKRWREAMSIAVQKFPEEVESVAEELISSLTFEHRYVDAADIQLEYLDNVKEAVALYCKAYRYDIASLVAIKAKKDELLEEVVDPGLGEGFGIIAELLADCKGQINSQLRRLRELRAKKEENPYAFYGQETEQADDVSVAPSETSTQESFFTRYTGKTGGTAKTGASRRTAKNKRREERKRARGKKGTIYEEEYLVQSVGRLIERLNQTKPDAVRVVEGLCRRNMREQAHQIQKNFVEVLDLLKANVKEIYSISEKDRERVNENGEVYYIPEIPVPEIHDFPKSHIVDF
The data set can be described thus: EMSA. Particulars: native tRNA modifications; 5' phosphate removed, then 5' 32P-labelled; 20 mM Tris-HCl pH 7.5, 150 mM NaCl, 2 mM MgCl2, 8% glycerol, 10 U Ribolock; 45 min at room temperature; 1.5% native agarose gel in 0.5x TBE. In general terms: A gel shift assay detects complexes by their altered migration in electrophoresis.

For data set [2], the target named is Elp1–KR9A–GFP (GFP-tagged Elp1 basic region mutant, nine basic residues to alanine) (S. cerevisiae) (UniProt Q06706). In words: co-IP; GFP–Trap beads precipitate the GFP-tagged protein from yeast lysate; HA-tagged partners found by anti-HA blot and measured by densitometry; lysis buffer 50 mM HEPES-KOH pH 7.5, 150 mM NaCl, 2 mM MgCl2, 0.1% Triton X-100; 4°C.

Consider total yeast tRNA (Sigma R9001), for which the Kd in data set [1] stood at 550 nM.

B1: Elp5-3HA (HA-tagged Elp5 subunit of Elongator) (natural protein)
chain: MASSSHNPVILLKRILSLTESSPFILCLDSIAQTSYKLIQEFVHQSKSKGNEYPIVYISFETVNKPSYCTQFIDATQMDFVHLVKQIISYLPAATATQAKKHMVIIDSLNYISTEYITRFLSEIASPHCTMVATYHKDIKDENRTVIPDWNNNYPDKLTLLQFMATTIVDIDVVLTGTLDTEEVSELLNEFRIPRGLNNDIFQLRLVNKRKSGRSLEYDFIVNSNTHEYELLSTTKQEEESSSNGLETPEMLQGLTTFNLGTSNKQKLAKDQVALPFLEAQSFGQGGAIVYEYEKDDDYDEEDPYEDPF
Regarding B1, the percent less co-precipitated than with wild-type Elp1–GFP (densitometry) in data set [2] stood at 30%.

B2: Kti12-3HA (HA-tagged Elongator accessory protein Kti12) (natural protein)
chain: MPLVLFTGYPCSGKTTLAKHLVQLLQSKIDATPSLSKYSITYHSDESLGIKHSDYITSQDERKLRSEIISAVKRDLSKNKIVIVDSLNYIKGFRYQLHCEVKNLSTTFCVIQTLCPPETIFEWNKTSNPNPWEPELLNQLIQRYEEPNSSNRWDSPLFAILTPQDNITDYIDDICKVVFQTSKSAKNSGHNDPLSKGLQKPNSATVLKPASQSNFIQVLDIETSKIIKTIMNHIKSLTSIGGVSNGTRVIVSEGITDINDDGCFFVDLPIGNVVTLAQLQRLKRQFINFNKLRDIDQDRIGPLFADYLNKNLN
Take B2: the percent less co-precipitated than with wild-type Elp1–GFP (densitometry) in data set [2] was 40%.

Values taken from article PMC4150532.
